# Data: the DeepSol protein solubility set
# Test: soluble on expression in E. coli; label from the status in PepcDB or PDB records
row,Sequence,soluble on expression in E. coli
1,MENWYPCIICGIARYGHDVIATPRLTSDARVNQWLNLIGKPALNRILATNKNPTLNTFICIEHFEPEELIEPKKRRMKPIKTTRREMAIYENYFRDHGYFETQKSDVNRKKSMKLTSISCSQCSESVERDGKFAKIDMVDHAKLHMELGDCRCEKHKKIERIDRIDGENSDFQCSECAFILNAELEAVKEKAEFCFPMFQFEKSKFSNSTLEPRMKPEYIESRPFWNSEEYDPVFLDSDVKFDLIEDFEPPEPEPEPEQVDTELVKLEPIDGDYEHMEGCFSGFEQEESEQPSTSSAPRKLVQQRDRLLENLYQSNRHPSMEDINSLLDFSGDQRSIEAIFGFFERRRNDDNEMCTGDDACSSLRRYLEMELHPHGPLLEPPEIRCRMIKMFEKHWAKYRYVFRDLHSYMFSDALGLPPKYIRQRFEHFKERKNQQQKKQQEEADRAFRERHKPPKPHKPKPKSQYSKFEDETMEKAYMRTVKMNPSSYESRDLLESISISLRMSLIKVHEWFNNRKFVDSIIDQTWRTFSVNDEKRLHSTFLQNPQPTDEQYCYLAKELRAPVKEVMNWFKLKQMNEEREEEALKFEYKLDALTQESIDLFTTIVDGTTVVSVAKRRLLALELDVPYETLGRWIFYYRNREEKSRKSPKLEDDDDPPPRLAKMPRLEMNEPDNEEDIKLEPLDS,not soluble
2,MEPGTYELRGTVHDETFNTTVWTPYNFEGFYYSIDENVSTESLTLTEEISGRSIDDEALVYSTSPALVKFEQESWGSYQVIGFMAEKYFAGYPANTFGNSRSVSVLSDDILAKVLIDDDHKRSMFTGSSIALENGYSLKAAEVDVNGNRVLLELYRDGELVDSGITSSNGDYIYEADIGGAEDVPMIAAHISTVFRSRETDAVFIEGIFQVSDDYLELSQGDSFGKMEISTISSSGITMKNEDSISLSRGNTISLMGNVSFKVADSNVLRFYPFVEVKSAPQDQLRIETPDVFVVGEAAEISVTARDAAVSDVEIRLGNQSIGTTGDDGILAYTPTLEGDFTLYANKAGYLSGSKDVDIVLEHHHHHH,soluble
3,MEPPLILIVEDEKDIARFIELELQAEGYRTEVAHDGITGLSKFREVSPNLVILDLMLPVMDGIEVAKRIRKTSNVPILILTAKDRVEDKVAGLDAGADDYLVKPFSIEELLARVRAHLRRVTPAITGEIRVADLIINLEGREVFRGNRRIELSNKEFELLELLAKNPGKVFSRYEIEEKVWPGYQGGSNVVDVYIGYLRKKLEAGGERRLIHTVRGVGYVLRED,soluble
4,MEPSGGEQEPGAVRFLDLPWEDVLLPHVLNRVPLRQLLRLQRVSRAFRSLVQLHLAGLRRFDAAQVGPQIPRAALARLLRDAEGLQELALAPCHEWLSDEDLVPVLARNPQLRSVALGGCGQLSRRALGALAEGCPRLQRLSLAHCDWVDGLALRGLADRCPALEELDLTACRQLKDEAIVYLAQRRGAGLRSLSLAVNANVGDAAVQELARNCPELHHLDLTGCLRVGSDGVRTLAEYCPVLRSLRVRHCHHVAESSLSRLRKRGVDIDVEPPLHQALVLLQDMAGFAPFVNLQV,soluble
5,MEQLLERIFDELAFLRANMATKDDVAALKDDIRALESRASHIEQTMATKDDIAAMDKRIGQIEQTMATKDDIASIEQRMATKDDVADIPFIKQAVMETLETINEIPAIKQTLAEALRKLDDVIASQARQELVLQSLAFRSLEQENEIRALKAK,not soluble
6,MEQLRAAARLQIVLGHLGRPSAGAVVAHPTSGTISSASFHPQQFQYTLDNNVLTLEQRKFYEENGFLVIKNLVPDADIQRFRNEFEKICRKEVKPLGLTVMRDVTISKSEYAPSEKMITKVQDFQEDKELFRYCTLPEILKYVECFTGPNIMAMHTMLINKPPDSGKKTSRHPLHQDLHYFPFRPSDLIVCAWTAMEHISRNNGCLVVLPGTHKGSLKPHDYPKWEGGVNKMFHGIQDYEENKARVHLVMEKGDTVFFHPLLIHGSGQNKTQGFRKAISCHFASADCHYIDVKGTSQENIEKEVVGIAHKFFGAENSVNLKDIWMFRARLVKGERTNL,not soluble
7,MERIERISEEIKREISDIIQNELKDPRLSKLISITEVNVTKDLRYAKVYVSVMGSEEEKANSLEGLKSAAGFIRREIGRRVQLRYTPEIHFELDNSIERGAYITKLINETSAQNKGSKDPEDT,soluble
8,MERKWIKKKAHIVPTHAMYGLAQVLKDIGIDVISLVNYALNLHDYHYNGFEPGFSRYSKKEEVFRDLITLVKETRKVIDIYYSKYEVKEILGKINELIKELTEGNKLEHHHHHH,not soluble
9,MERLDFSSIIRKDREEHKSKKFEGTFLEYLEIVKENPEITMLAHQRMYKLITEPGVTVIRTEENPRLRRIYGNDIIKKYKFFEDEFFGIDKTIMKIVRYFHSAAMAGEEARQVLYLVGPVGAGKSSLMEALKRALEMSPPIYALKGCPMREEPLHLVPKHLRKEFEEILNVRIEGDLCPICRYRLKNEYNGEYERFPVETVDFSIRSRKGIGVVPPVDPNNQDTSVLIGSVDISKIDLYPEDDPRVLSLNGAFNVGNRGIVEFIEVFKNETEYLHTMITATQEKSIPSPGKGSMIYFDGIILAHSNEAEWNKFKSDHTNEAILDRIVKIEVPYCLELNEEIKIYEKILRKSKFDAHIAPHTIEIAAMFAILTRLAPSNKVDPMTKLKIYNGEEIIEKGMTKKVDIFELKEEAPREGMTGISTRFIMKVLDTTLSESEHNCINPISVMETLVKSIKELSISEEERERYLRFVQDSIRKEYNKILEREITKAFIHGYKEQAESLFNNYLDHAEAFVNKSKIKDRNTGEELEPDEKFLRSIEEQIGITDTAAKGFRADVTAYMFYVLRNGGKLDYTSYEPLKEAIEKKLTSSVRELSRVITQAKVRDKEQSEKYDTMVQEMKNNGYCDHCCNVILKYAANNLWKD,soluble
10,MERPQPDSMPQDLSEALKEATKEVHTQAENAEFMRNFQKGQVTRDGFKLVMASLYHIYVALEEEIERNKESPVFAPVYFPEELHRKAALEQDLAFWYGPRWQEVIPYTPAMQRYVKRLHEVGRTEPELLVAHAYTRYLGDLSGGQVLKKIAQKALDLPSSGEGLAFFTFPNIASATKFKQLYESRMNSLEMTPAVRQRVIEEAKTAFLLNIQLFEELQELLTHDTKDQSPSRA,soluble
11,MESFIDRITEETDENFRICRENIPNFETTISPLLNTMKNIKLLLDDAAFDQQKLENNCEETCMNCTKSQLNDFLGIKVEASTIVDVKSQLVPQSKESSALVETNEPNEQGLSSKPKENDIRIVPQITDEEFKTIPKYQLGRLTLEMMNEIVSKMDDFLMKKSKILGKTNKQLTRSDREVLDNWRELEMKARKRLPTTLFFIETDIRPMLQDRLRPSFAKAIPCLRHIRRIREERCGPLTFYYP,not soluble
12,MESGVPLVVVLRDVLEYVDDTSEAQYAINTDGVLVNGDSVGDVNRPIGMFDILAFPDRDEYYRVFPDEGGRLGLTEIDADAAGSKLNKVTDKTTVSGGRTQLNFHDGSNLALDEDAYAGGDSVVVDTDTNEIVAHFQYEEGALVTAVAGQHAGDIGEIAEINVQPGSASNTVRVDDENGGFETIAEYVVVIDENFLEHHHHHH,soluble
13,MESIEQQLTELRTTLRHHEYLYHVMDAPEIPDAEYDRLMRELRELETKHPELITPDSPTQRVGAAPLAAFSQIRHEVPMLSLDNVFDEESFLAFNKRVQDRLKNNEKVTWCCELKLDGLAVSILYENGVLVSAATRGDGTTGEDITSNVRTIRAIPLKLHGENIPARLEVRGEVFLPQAGFEKINEDARRTGGKVFANPRNAAAGSLRQLDPRITAKRPLTFFCYGVGVLEGGELPDTHLGRLLQFKKWGLPVSDRVTLCESAEEVLAFYHKVEEDRPTLGFDIDGVVIKVNSLAQQEQLGFVARAPRWAVAFKFPAQEQMTFVRDVEFQVGRTGAITPVARLEPVHVAGVLVSNATLHNADEIERLGLRIGDKVVIRRAGDVIPQVVNVVLSERPEDTREVVFPTHCPVCGSDVERVEGEAVARCTGGLICGAQRKESLKHFVSRRAMDVDGMGDKIIDQLVEKEYVHTPADLFKLTAGKLTGLERMGPKSAQNVVNALEKAKETTFARFLYALGIREVGEATAAGLAAYFGTLEALEAASIEELQKVPDVGIVVASHVHNFFAEESNRNVISELLAEGVHWPAPIVINAEEIDSPFAGKTVVLTGSLSQMSRDDAKARLVELGAKVAGSVSKKTDLVIAGEAAGSKLAKAQELGIEVIDEAEMLRLLGS,soluble
14,MESIKLSQKAEEEIVNAARMAALSNLTEKSQNLITLEDIAIYFGRHYQTVAKIISKLPNFPKPVTPVTVDQQNSRPRYIAGEVVRWGRINAKPY,not soluble
